Test results reported in patent publication US20120121688A1, “PREVENTATIVE OR THERAPEUTIC AGENT AND METHOD FOR IMMUNE DISEASE” (Rinken, priority 2006, published 2012).

Tests used:
[1] = tested on: B220+ cells (B cells); assay: Cytokine production by whole spleen cells co-cultured with B220+ cells (B cells) from spleen of administered mice (ELISA); format: cell-based, BDF1 mice; details: B220+ cells from mice given 2 μg α-GalCer/mouse i.p., added to whole spleen cells; FIG. 1
Method: Aqueous α-GalCer or αGC liposome (International Publication WO2005/120574) at 2 μg α-GalCer/mouse was intraperitoneally administered to BDF1 mice, and after 24 hours, spleen was removed. The spleen was homogenized with a slide glass to prepare a cell suspension. Subsequently, anti-CD11c antibody magnetic beads (Miltenyi) were added thereto and CD11c^+ cells (DC) were prepared using a magnet. B220^+ cells (B cells) were prepared using anti-B220 mAb magnetic beads (Miltenyi) from the remaining cells which had not been bound to the magnet. Then, 2.5×10^5 whole spleen cells from the normal BDF1 mouse and 1×10^5 DC or 3×10^5 B cells derived from the spleen in the BDF1 mouse administered with aqueous α-GalCer or αGC liposome, suspended in 200 μL of culture medium were added in one well in a 96-well U bottom culture plate, and cultured in an incubator containing 5% CO2 at 37° C. Levels of cytokines, IFN-γ, IL-4 and IL-10 in culture supernatants after 24, 48 and 72 hours were measured by ELISA (FIG. 1).

[2] = tested on: natural type Cryj1-specific and recCryj1/2-specific antibody titers; assay: In vivo antibody production by immunization with recCryj1/2 protein or natural type Cryj1; design: species or system BALB/c×DBA/2F1 (BDF1) mice
Method: BALB/c×DBA/2F1 (BDF1) mice (female, 8 weeks of age, five mice in one group, Charles River) were intraperitoneally immunized with 10 μg of purified Cryj1 (natural type Cryj1, Hayashibara Biochemical Laboratories Inc.) derived from the cedar pollen, or 5 μg or 10 μg of the recCryj1/2 protein mixed with 2 mg of aluminium hydroxide gel adjuvant (RIKEN) at the start of the experiment (0day) and on the 14th day. The boost immunization with 1 μg of natural type Cryj1 or 5 μg or 10 μg of the recCryj1/2 protein was given to each mouse on the 41st day. Furthermore, on the 81st day, the boost immunization with 1 μg of natural type Cryj1 mixed with 2 mg of aluminium hydroxide gel was given to all mice. Blood samples were collected from orbital venous plexus on the 13th, 28th, 55th, 76th and 95th days, and levels of natural type Cryj1-specific antibody titers and recCryj1/2-specific IgE antibody titers were measured. […] The recCryj1/2-specific IgE antibody titers on the 76th day were increased in mice immunized with the recCryj1/2 fusion protein (FIG. 8). Meanwhile, on the 28th and 55th day, natural type Cryj1-specific IgG1 and IgG2a antibody titers were increased in both mice immunized with natural type Cryj1 and recCryj1/2 (FIG. 9).

[3] = tested on: natural type Cryj1-specific IgE antibody; assay: Inhibitory capacity of recCryj1/2 protein for in vivo IgE antibody production; design: species or system BDF1 mice; details: FIG. 10
Method: BDF1 mice (female, 8 weeks of age, Charles River) were intraperitoneally immunized with 5 μg of purified Cryj1 (natural type Cryj1, Hayashibara Biochemical Laboratories Inc.) derived from the cedar pollen mixed with 2 mg of aluminium hydroxide gel adjuvant (RIKEN) at the start of the experiment (0day) and on the 14th day. On the 50th day, the boost immunization with 1 μg of natural type Cryj1 was given. Meanwhile, the blood samples were collected from the orbital venous plexus on the 14th, 29th and 57th days, and the levels of the natural type Cryj1-specific IgE antibody in serum were measured. Subsequently, on the 99th day, the levels of the natural type Cryj1-specific IgE antibody were measured in all mice, and the mice were divided into three group (5 mice in one group) so that average values of antibody titers were equal among the groups. On the 106th, 113th and 120th days, the recCryj1/2 protein (0.2 μg), the recCryj1/2 protein (2 μg), or saline was administered three times, and further the boost immunization with 1 μg of natural type Cryj1 was given on the 133rd day. The blood samples were collected from the orbital venous plexus on the 140th and 160th days, and the levels of the natural type Cryj1-specific IgE antibody in serum were measured.

Molecule | IFN-γ production [1] | IL-4 production [1] | IL-10 production [1] | natural type Cryj1-specific IgG1 antibody titers ([2]; 28th and 55th day, FIG. 9) | natural type Cryj1-specific IgG2a antibody titers ([2]; 28th and 55th day, FIG. 9) | recCryj1/2-specific IgE antibody titers ([2]; 76th day, FIG. 8) | increase of the natural type Cryj1-specific IgE antibody after immunization with adjuvant and natural type Cryj1 on the 81st day ([2]; 94th day, mice earlier immunized with 5 or 10 μg, FIG. 7) | natural type Cryj1-specific IgE antibody titers ([2]; days 28, 55 and 76, i.p. immunization with aluminium hydroxide gel days 0 and 14, boost day 41, FIG. 7) | natural type Cryj1-specific IgE antibody titers versus saline group ([3]; 127th day, 0.2 or 2 μg administered on days 106, 113, 120 to Cryj1-sensitized mice) | natural type Cryj1-specific IgE antibody titers after the boost immunization (133rd day) ([3]; 160th day, increased in saline group)
CCCCCCCCCCCCCCCCCCCCCCCCCC(=O)N[C@@H](CO[C@H]1O[C@H](CO)[C@H](O)[C@H](O)[C@H]1O)[C@H](O)[C@H](O)CCCCCCCCCCCCCC [aqueous α-GalCer, α-galactosylceramide] | not detected | not detected | not detected | – | – | – | – | – | – | –
recCryj1/2 protein: His-tagged recombinant fusion protein of Cryj1 mature protein and Cryj2 mature protein, SEQ ID NO:9 (protein, His tag) MAHHHHHHSAALEVLFQGPSDNPIDSCWRGDSNWAQNRMKLADCAVGFGSSTMGGKGGDLYTVTNSDDDPVNPAPGTLRYGATRDRPLWIIFSGNMNIKLKMPMYIAGYKTFDGRGAQVYIGNGGPCVFIKRVSNVIIHGLHLYGCSTSVLGNVLINESFGVEPVHPQDGDALTLRTATNIWIDHNSFSNSSDGLVDVTLSSTGVTISNNLFFNHHKVMLLGHDDAYSDDKSMKVTVAFNQFGPNCGQRMPRARYGLVHVANNNYDPWTIYAIGGSSNPTILSEGNSFTAPNESYKKQVTIRIGCKTSSSCSNWVWQSTQDVFYNGAYFVSSGKYEGGNIYTKKEAFNVENGNATPQLTKNAGVLTCSLSKRCRKVEHSRHDAINIFNVEKYGAVGDGKHDCTEAFSTAWQAACKKPSAMLLVPGNKKFVVNNLFFNGPCQPHFTFKVDGIIAAYQNPASWKNNRIWLQFAKLTGFTLMGKGVIDGQGKQWWAGQCKWVNGREICNDRDRPTAIKFDFSTGLIIQGLKLMNSPEFHLVFGNCEGVKIIGISITAPRDSPNTDGIDIFASKNFHLQKNTIGTGDDCVAIGTGSSNIVIEDLICGPGHGISIGSLGRENSRAEVSYVHVNGAKFIDTQNGLRIKTWQGGSGMASHIIYENVEMINSENPILINQFYCTSASACQNQRSAVQIQDVTYKNIRGTSATAAAIQLKCSDSMPCKDIKLSDISLKLTSGKIASCLNDNANGYFSGHVIPACKNLSPS | – | – | – | increased | increased | increased | scarcely observed | not increased at all | higher | decreased
